Source: patent US20220073608A1 (JIANGSU HUAIYU PHARMACEUTICAL, published 2022)
Positions count from the first letter of the chain named.

T1: mouse SEMA4D, full length, on CHO-K1 cells (CHO-K1 mSEMA4D) (mouse, UniProt O09126 24-861)
T1 construct: whole, on cells; also called murine SEMA4D recombinant cells
T1 sequence (looked up): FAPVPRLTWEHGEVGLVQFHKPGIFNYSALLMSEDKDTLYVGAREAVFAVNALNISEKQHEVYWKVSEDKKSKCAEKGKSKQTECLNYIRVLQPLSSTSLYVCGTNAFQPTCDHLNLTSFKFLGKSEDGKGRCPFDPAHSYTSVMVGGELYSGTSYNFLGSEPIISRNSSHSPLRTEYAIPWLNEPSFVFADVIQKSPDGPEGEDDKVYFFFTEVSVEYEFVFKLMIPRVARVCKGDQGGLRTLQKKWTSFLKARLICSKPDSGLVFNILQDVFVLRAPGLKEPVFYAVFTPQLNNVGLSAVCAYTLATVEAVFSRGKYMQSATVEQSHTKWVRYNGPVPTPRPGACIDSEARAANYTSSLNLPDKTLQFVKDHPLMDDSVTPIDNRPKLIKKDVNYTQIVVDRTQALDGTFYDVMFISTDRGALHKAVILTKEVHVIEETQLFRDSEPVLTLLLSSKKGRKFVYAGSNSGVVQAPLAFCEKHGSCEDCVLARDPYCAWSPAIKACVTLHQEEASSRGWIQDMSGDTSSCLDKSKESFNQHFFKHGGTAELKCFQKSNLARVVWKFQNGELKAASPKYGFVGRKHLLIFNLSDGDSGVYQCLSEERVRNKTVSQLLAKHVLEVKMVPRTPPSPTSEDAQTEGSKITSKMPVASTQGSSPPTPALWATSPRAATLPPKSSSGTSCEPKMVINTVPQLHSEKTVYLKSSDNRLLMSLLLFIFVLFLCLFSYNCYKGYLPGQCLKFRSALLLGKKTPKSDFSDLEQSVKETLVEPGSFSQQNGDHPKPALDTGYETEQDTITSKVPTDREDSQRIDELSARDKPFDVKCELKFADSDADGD

T2: hSEMA4D ECD-His (His-tagged human SEMA4D protein extracellular domain, Met22-Arg734) (human, UniProt Q92854 22-734)
T2 construct: Expressed in CHO-S cells, purified on Ni column; also called protein immunogen; immunogen A; not shown: His tag of the pCP vector
T2 sequence: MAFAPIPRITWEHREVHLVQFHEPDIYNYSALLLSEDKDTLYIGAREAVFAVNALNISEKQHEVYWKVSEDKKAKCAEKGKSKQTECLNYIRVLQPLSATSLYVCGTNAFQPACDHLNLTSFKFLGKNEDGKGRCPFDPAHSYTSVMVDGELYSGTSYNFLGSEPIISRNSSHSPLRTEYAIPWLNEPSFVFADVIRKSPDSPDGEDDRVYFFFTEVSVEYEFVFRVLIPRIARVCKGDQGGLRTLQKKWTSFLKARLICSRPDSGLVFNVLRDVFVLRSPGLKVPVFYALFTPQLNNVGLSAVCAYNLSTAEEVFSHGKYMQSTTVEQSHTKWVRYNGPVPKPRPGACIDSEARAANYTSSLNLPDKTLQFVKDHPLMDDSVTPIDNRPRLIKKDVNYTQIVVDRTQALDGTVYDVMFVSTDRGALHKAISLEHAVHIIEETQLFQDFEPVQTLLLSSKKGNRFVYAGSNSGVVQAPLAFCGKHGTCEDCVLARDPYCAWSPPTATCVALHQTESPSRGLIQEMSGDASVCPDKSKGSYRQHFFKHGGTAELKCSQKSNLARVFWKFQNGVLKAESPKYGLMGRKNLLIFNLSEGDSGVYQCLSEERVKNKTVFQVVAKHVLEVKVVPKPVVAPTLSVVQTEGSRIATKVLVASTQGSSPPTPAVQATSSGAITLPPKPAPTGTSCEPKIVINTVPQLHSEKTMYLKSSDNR

B1: 42B7G2 (antibody, V domains shown)
VH: QVQLQQSGAELARPGASVKLSCKASGYTFTDYGISWVKQRTGQGLEWIGEIYLRNDNSYYNEKFKGKATLTADKSSNTAYMELRSLTSEDSAVYFCARWGDHGNNYEDAMDYWGQGTSVTVSS
VL: DIVLTQSPASLAMSLGKRATISCRASESVSIIGSNLIHWYQQKPGQPPKLLIYHASNLETGVPARFSGSGSRTDFTLTIDPVEEDDVAIYYCLQSRKVPYTFGGGTKLEIK
notes: Mouse monoclonal antibody purified from hybridoma supernatant on protein A
B2: 32C8F10 (antibody, V domains shown)
VH: EVQLQQSGAELVRPGASVKLSCTASGFNIKDEYIHWVKQRPEQGLEWIGWIDPANGHTEYASRFQAKATITADTSSNTAYLQLSSLTSEDTAVYYCTTGDYDGFAYWGQGTLVTVST
VL: QIVLTQSPAIMSASPGEKVTISCSARSSVSYMYWYQQKPGSSPKPWIYRTSNLASGVPARFSGSGSGTSYSLTISSMEAEDAATYYCQHYHTYPYTFGGGTKLEIK
notes: as for B1
B3: 31C11G2 (antibody, V domains shown)
VH: B2 VH with A105V
VL: B2 VL with S22F
notes: as for B1
B4: 31G10C5 (antibody, V domains shown)
VH: B2 VH with E32D, T58I, R63N, A105T
VL: B2 VL
notes: as for B1
B5: 37F11F9 (antibody, V domains shown)
VH: EVQLQQSGPVLVKPGASVKMSCKASGYTFTDYYMNWVKQSHGKSLEWIGLINPYSGGSTFNQKFKAKATLTVDKSSSSAYMDLNSLTSEDSAVYYCARVGDGYYGVTHGMDYWGQGTSVTVSS
VL: DIVMTPSQKFMSTTVGDRVSITCKASQNVGTAVAWYQQKPGQSPTILIYSASNRYTGVPDRFTGSGSGTDFTLTISNMKSEDLADYFCQQYYIYPFTFAAGTKLELK
notes: as for B1
B6: 37C4F7 (antibody, V domains shown)
VH: EFQLQQSGPEVVKPGASVKISCKASGYSFTDYNMNWMKQSKGKSLEWIGVINPNYGTTTYNQNFKGKATLTVDQSSSTAYMQLNSLTSEDSAVYYCARDMYYVYAYYTMDYWGQGTSVTVSS
VL: DVVMTQTPLSLPVSLGDQASISCRSSQSLVHSNGHTYLHWYLQRPGQSPTLLIYKVSNRFSGVPDRFSGSGSGTDFTLKISRVEAEDLGVYFCSQGTHVPWTFGGGTKLEIK
notes: as for B1
B7: 38H2E3 (antibody, V domains shown)
VH: B6 VH with N52S, N54D, G66D, R98K, Q114H
VL: B6 VL with F67V, W101R
notes: as for B1

molecular target: T1, mouse SEMA4D, full length, on CHO-K1 …; test: FACS, CHO-K1 mSEMA4D cells; Ab 0.00427 nM
Procedure: (§1) After the cells were counted, they were diluted with PBS to 2×10⁶ cells per milliliter. After washing, 100 μL of diluted and purified leading antibodies was added to each well and the plate was incubated for 1 hour on ice. […] Cells were washed 2 times by centrifugation with FACS buffer. The cells were suspended with 200 μL of FACS buffer, FACS (FACS Verse, purchased from BD) was used to detect and analyze the results.

| MFI | Binder |
| --- | --- |
| 30.3 | B1 |
| 30.2 | B2 |
| 31.4 | B3 |
| 29.8 | B4 |
| 30.1 | B5 |
| 30.5 | B6 |
| 29.9 | B7 |

molecular target: T1, mouse SEMA4D, full length, on CHO-K1 …; test: FACS, CHO-K1 mSEMA4D cells; Ab 66.7 nM
Procedure: as §1

| MFI | Binder |
| --- | --- |
| 35.3 | B1 |
| 31.7 | B2 |
| 31.4 | B3 |
| 32.4 | B4 |
| 31 | B5 |
| 30 | B6 |
| 30 | B7 |

molecular target: T2, hSEMA4D ECD-His (His-tagged human …); test: ELISA, coated hSEMA4D ECD-His; Ab 1.33 nM
Procedure: First, hSEMA4D ECD-His was diluted with PBS to a final concentration of 1.0 μg/mL, and then was added to a 96-well ELISA plate, 100 μL per well, sealed with plastic film and incubated overnight at 4° C. On the next day, the plate was washed with a plate washing solution, that is, PBS buffer containing 0.05% (v/v) Tween20, for 4 times, and added with blocking solution, that is, PBS buffer containing 0.05% (v/v) Tween20 and 2% (w/w) BSA, blocked at 37° C. for 1 hour. The blocking solution was poured out and the plate was washed 4 times with the plate washing solution. 100 μL of the purified leading antibodies obtained in Examples 1 and 2 was added to each well. After incubation at 37° C. for 1 hour, the plate was washed 4 times with a plate washing solution. 100 μL of horseradish peroxidase (HRP) labeled secondary antibody (purchased from Sigma) was added at a dilution of 1:10000 to each well, and the plate was incubated at 37° C. for 1 hour, and washed 4 times with a plate washing solution. 100 μL TMB substrate was added to each well, and the plate was incubated at room temperature for 5 minutes, and added with 100 μL stop solution (1.0N HCl) to each well. A microplate reader (SpectraMax M5e, purchased from Molecular Device) was used to read the A450 nm value. […] Wherein, the data in the table was the OD450 nm value.

| OD450 nm | Binder |
| --- | --- |
| 1.87 | B1 |
| 1.87 | B2 |
| 1.67 | B3 |
| 1.52 | B4 |
| 1.39 | B5 |
| 0.91 | B6 |
| 1.1 | B7 |

molecular target: T1, mouse SEMA4D, full length, on CHO-K1 …; test: FACS, CHO-K1 mSEMA4D cells; Ab 2.67 nM
Procedure: as §1

| MFI | Binder |
| --- | --- |
| 31 | B1 |
| 30.7 | B2 |
| 30.5 | B3 |
| 30.1 | B4 |
| 30.6 | B5 |
| 30 | B6 |
| 30.7 | B7 |

molecular target: T3, monkey SEMA4D, full length, on CHO-K1 cells (CHO-K1 cSEMA4D) (monkey); test: FACS, CHO-K1 cSEMA4D cells; Ab 0.534 nM
T3 construct: whole, on cells; also called monkey SEMA4D recombinant cells
Procedure: as §1

| MFI | Binder |
| --- | --- |
| 1690 | B1 |
| 2930 | B2 |
| 2980 | B3 |
| 3490 | B4 |
| 925 | B5 |
| 760 | B6 |
| 601 | B7 |

molecular target: T1, mouse SEMA4D, full length, on CHO-K1 …; test: FACS, CHO-K1 mSEMA4D cells; Ab 0.534 nM
Procedure: as §1

| MFI | Binder |
| --- | --- |
| 31.7 | B1 |
| 29.8 | B2 |
| 30.7 | B3 |
| 30.3 | B4 |
| 30.9 | B5 |
| 29.2 | B6 |
| 29.5 | B7 |
